# Measurements reported in the supplement of paper PMC9112550, “Optimization of the antimicrobial peptide Bac7 by deep mutational scanning” (BMC Biology, 2022).
# Test system: Escherichia coli TOP10
# Assay: shrunken log2 fold change of peptide-encoding DNA abundance (4.5 h post-induction vs induction); higher = less antimicrobial activity (less host growth inhibition)
# Conditions: time post-induction: 4.5 h; library: site-saturation at positions 5, 18, 19, 20
# 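Note: peptides expressed intracellularly from a pBAD plasmid library in pooled LB shake-flask culture, induced with 0.3% L-arabinose, DNA abundance read by NGS, three biological replicates, DESeq2 with apeglm shrinkage.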
row,Sequence,shrunken log2 fold change
1,RRIRNRPPRLPRPRPRPNWLPRP,0.0494
2,RRIRTRPPRLPRPRPRPKLEPRP,-0.0598
3,RRIRHRPPRLPRPRPRPTSRPRP,0.0698
4,RRIRSRPPRLPRPRPRPFRNPRP,-0.225
5,RRIRCRPPRLPRPRPRPEVMPRP,-0.0567
6,RRIRIRPPRLPRPRPRPSYFPRP,-0.83
7,RRIRNRPPRLPRPRPRPACNPRP,-0.148
8,RRIRWRPPRLPRPRPRPHNVPRP,-0.178
9,RRIRTRPPRLPRPRPRPIDVPRP,-0.0217
10,RRIRYRPPRLPRPRPRPHHIPRP,-0.356
11,RRIRGRPPRLPRPRPRPFIIPRP,0.102
12,RRIRTRPPRLPRPRPRPSSYPRP,-0.0381
13,RRIRMRPPRLPRPRPRPTIFPRP,-0.0388
14,RRIRLRPPRLPRPRPRPEFGPRP,0.07
15,RRIRTRPPRLPRPRPRPIMCPRP,-0.255
16,RRIRCRPPRLPRPRPRPRDEPRP,0.342
17,RRIRIRPPRLPRPRPRPQNWPRP,-0.517
18,RRIRKRPPRLPRPRPRPWYFPRP,0.0699
19,RRIRARPPRLPRPRPRPMKIPRP,0.275
20,RRIRVRPPRLPRPRPRPQGAPRP,0.168
21,RRIRHRPPRLPRPRPRPKEHPRP,0.0812
22,RRIRYRPPRLPRPRPRPKKQPRP,-0.00353
23,RRIRGRPPRLPRPRPRPYSTPRP,0.037
24,RRIRYRPPRLPRPRPRPEQFPRP,-0.14
25,RRIRFRPPRLPRPRPRPQPLPRP,-0.0304

row,Sequence,shrunken log2 fold change
1,RRIRGRPPRLPRPRPRPPDPPRP,1.57
2,RRIRDRPPRLPRPRPRPQGVPRP,0.0763
3,RRIRFRPPRLPRPRPRPPWNPRP,-0.128
4,RRIRYRPPRLPRPRPRPDEFPRP,0.0196
5,RRIRARPPRLPRPRPRPDYVPRP,0.353
6,RRIRARPPRLPRPRPRPIINPRP,-0.174
7,RRIRHRPPRLPRPRPRPVCHPRP,-0.198
8,RRIRKRPPRLPRPRPRPKLDPRP,0.707
9,RRIRIRPPRLPRPRPRPYRAPRP,-0.77
10,RRIRFRPPRLPRPRPRPNLVPRP,-0.453
11,RRIRTRPPRLPRPRPRPYHDPRP,-0.13
12,RRIRLRPPRLPRPRPRPYHNPRP,-0.712
13,RRIRFRPPRLPRPRPRPPLPPRP,0.661
14,RRIRSRPPRLPRPRPRPDEDPRP,-0.00181
15,RRIRWRPPRLPRPRPRPIPHPRP,0.0496
16,RRIRVRPPRLPRPRPRPQTYPRP,-0.647
17,RRIRKRPPRLPRPRPRPLRIPRP,0.648
18,RRIRYRPPRLPRPRPRPEMQPRP,0.057
19,RRIRQRPPRLPRPRPRPEWVPRP,3.27
20,RRIRTRPPRLPRPRPRPQCDPRP,-0.184
21,RRIRIRPPRLPRPRPRPITSPRP,-1.46
22,RRIRERPPRLPRPRPRPEMTPRP,-0.0236
23,RRIRFRPPRLPRPRPRPTVCPRP,-0.0464
24,RRIRNRPPRLPRPRPRPSLIPRP,-0.138
25,RRIRQRPPRLPRPRPRPRYEPRP,-0.349

row,Sequence,shrunken log2 fold change
1,RRIRERPPRLPRPRPRPKVDPRP,0.0519
2,RRIRVRPPRLPRPRPRPMQLPRP,-0.0252
3,RRIRKRPPRLPRPRPRPEIAPRP,2.48
4,RRIRNRPPRLPRPRPRPMCYPRP,-0.0198
5,RRIRVRPPRLPRPRPRPDWVPRP,-0.0925
6,RRIRMRPPRLPRPRPRPTMDPRP,0.306
7,RRIRIRPPRLPRPRPRPEDIPRP,-0.407
8,RRIRCRPPRLPRPRPRPWFTPRP,-0.879
9,RRIRMRPPRLPRPRPRPVPIPRP,0.0109
10,RRIRARPPRLPRPRPRPCCHPRP,-0.454
11,RRIRHRPPRLPRPRPRPGFNPRP,-0.0117
12,RRIRWRPPRLPRPRPRPTQEPRP,0.0333
13,RRIRFRPPRLPRPRPRPQCLPRP,-0.0767
14,RRIRERPPRLPRPRPRPGSEPRP,-0.0924
15,RRIRNRPPRLPRPRPRPRGTPRP,0.224
16,RRIRVRPPRLPRPRPRPFTIPRP,-0.085
17,RRIRTRPPRLPRPRPRPADHPRP,-0.0507
18,RRIRGRPPRLPRPRPRPLFDPRP,0.548
19,RRIRYRPPRLPRPRPRPSVEPRP,-0.481
20,RRIRYRPPRLPRPRPRPFWEPRP,0.13
21,RRIRIRPPRLPRPRPRPFMAPRP,-0.397
22,RRIRARPPRLPRPRPRPIEYPRP,-0.267
23,RRIRGRPPRLPRPRPRPVYGPRP,0.0598
24,RRIRMRPPRLPRPRPRPDTMPRP,0.28
25,RRIRVRPPRLPRPRPRPGVNPRP,0.101

row,Sequence,shrunken log2 fold change
1,RRIRWRPPRLPRPRPRPVRYPRP,0.00421
2,RRIRGRPPRLPRPRPRPFNWPRP,0.153
3,RRIRYRPPRLPRPRPRPLCQPRP,-0.648
4,RRIRDRPPRLPRPRPRPCCLPRP,-0.146
5,RRIRERPPRLPRPRPRPVGDPRP,-0.0343
6,RRIRYRPPRLPRPRPRPCPNPRP,0.626
7,RRIRWRPPRLPRPRPRPDFFPRP,0.204
8,RRIRKRPPRLPRPRPRPCMDPRP,-0.122
9,RRIRIRPPRLPRPRPRPRQVPRP,0.0368
10,RRIRGRPPRLPRPRPRPMWPPRP,1.07
11,RRIRLRPPRLPRPRPRPATGPRP,0.13
12,RRIRMRPPRLPRPRPRPHKPPRP,0.0226
13,RRIRERPPRLPRPRPRPWREPRP,0.127
14,RRIRVRPPRLPRPRPRPAGMPRP,-0.0507
15,RRIRHRPPRLPRPRPRPTIDPRP,-0.252
16,RRIRMRPPRLPRPRPRPCWDPRP,0.439
17,RRIRGRPPRLPRPRPRPFGCPRP,-0.0567
18,RRIRERPPRLPRPRPRPCHIPRP,-0.439
19,RRIRGRPPRLPRPRPRPISLPRP,-0.228
20,RRIRVRPPRLPRPRPRPQKAPRP,-0.0576
21,RRIRLRPPRLPRPRPRPWAWPRP,-0.0255
22,RRIRQRPPRLPRPRPRPHREPRP,-0.152
23,RRIRWRPPRLPRPRPRPWHTPRP,0.103
24,RRIRSRPPRLPRPRPRPVAMPRP,0.0384
25,RRIRFRPPRLPRPRPRPFCWPRP,0.4

row,Sequence,shrunken log2 fold change
1,RRIRSRPPRLPRPRPRPHPQPRP,0.0419
2,RRIRMRPPRLPRPRPRPQRIPRP,-0.0462
3,RRIRQRPPRLPRPRPRPARMPRP,0.195
4,RRIRPRPPRLPRPRPRPRRLPRP,0.279
5,RRIRDRPPRLPRPRPRPAQCPRP,0.0665
6,RRIRRRPPRLPRPRPRPGQLPRP,0.0163
7,RRIRGRPPRLPRPRPRPIVWPRP,0.381
8,RRIRSRPPRLPRPRPRPQEPPRP,-0.284
9,RRIRTRPPRLPRPRPRPGCWPRP,0.453
10,RRIRCRPPRLPRPRPRPKTAPRP,0.39
11,RRIRARPPRLPRPRPRPRHIPRP,-0.177
12,RRIRARPPRLPRPRPRPCIVPRP,-0.233
13,RRIRMRPPRLPRPRPRPVHYPRP,-0.0505
14,RRIRKRPPRLPRPRPRPKADPRP,0.018
15,RRIRERPPRLPRPRPRPHMQPRP,-0.551
16,RRIRVRPPRLPRPRPRPYEVPRP,0.0284
17,RRIRFRPPRLPRPRPRPKWRPRP,0.413
18,RRIRERPPRLPRPRPRPSDSPRP,-0.186
19,RRIRPRPPRLPRPRPRPQYKPRP,-0.129
20,RRIRSRPPRLPRPRPRPVTFPRP,-0.21
21,RRIRMRPPRLPRPRPRPFAVPRP,-0.109
22,RRIRDRPPRLPRPRPRPYSFPRP,-0.0868
23,RRIRDRPPRLPRPRPRPSSKPRP,-0.0562
24,RRIRARPPRLPRPRPRPMGFPRP,-0.154
25,RRIRLRPPRLPRPRPRPMNCPRP,-0.507

row,Sequence,shrunken log2 fold change
1,RRIRARPPRLPRPRPRPCGCPRP,0.807
2,RRIRERPPRLPRPRPRPDIFPRP,0.0405
3,RRIRQRPPRLPRPRPRPFNMPRP,0.00759
4,RRIRLRPPRLPRPRPRPYGNPRP,0.0303
5,RRIRVRPPRLPRPRPRPNCWPRP,0.0329
6,RRIRNRPPRLPRPRPRPFRYPRP,-0.591
7,RRIRDRPPRLPRPRPRPSMHPRP,-0.176
8,RRIRHRPPRLPRPRPRPEKWPRP,-0.0863
9,RRIRNRPPRLPRPRPRPKLIPRP,-0.0332
10,RRIRGRPPRLPRPRPRPGMEPRP,1.54
11,RRIRDRPPRLPRPRPRPRCFPRP,1.66
12,RRIRERPPRLPRPRPRPYFSPRP,-0.247
13,RRIRPRPPRLPRPRPRPHAHPRP,0.00207
14,RRIRYRPPRLPRPRPRPKTEPRP,-0.00177
15,RRIRERPPRLPRPRPRPHHLPRP,-0.143
16,RRIRYRPPRLPRPRPRPVACPRP,-0.187
17,RRIRLRPPRLPRPRPRPELIPRP,-0.0413
18,RRIRQRPPRLPRPRPRPLVMPRP,-0.107
19,RRIRYRPPRLPRPRPRPIARPRP,0.00902
20,RRIRARPPRLPRPRPRPLPHPRP,0.209
21,RRIRCRPPRLPRPRPRPSTRPRP,-0.119
22,RRIRCRPPRLPRPRPRPFKVPRP,-0.0177
23,RRIRWRPPRLPRPRPRPHRQPRP,-0.165
24,RRIRARPPRLPRPRPRPWVAPRP,0.285
25,RRIRHRPPRLPRPRPRPSLTPRP,0.0616
